The values below come from the supplement of paper PMC5998384.

In data set [1] the test system is HeLa Kyoto. Nature of the data set: solubility in G1/S (NP-40 vs SDS abundance) (log2 ratio); higher = more soluble. The conditions noted are these: cell cycle stage: G1/S.
Data set [2] deals with HeLa Kyoto. Nature of the data set: thermal stability score vs G1/S (z-score of summed log2 fold changes over temperatures); higher = more thermally stable than in G1/S.
Data set [3] relates to HeLa Kyoto. In words: melting temperature (median over replicates), in situ; higher = more thermally stable.
In data set [4] the test system is HeLa Kyoto. In words: solubility change mitosis vs G1/S (difference of NP-40 vs SDS log2 ratios) (log2 ratio difference); higher = more soluble in mitosis.
The mark [5] stands for this setting: cell cycle stage: early G1 (4.5 h after nocodazole release).
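For melting temperature (median over replicates), in situ in this document: HeLa Kyoto cells synchronized by double thymidine or nocodazole block, proteins quantified by TMT10plex mass spectrometry, three independent biological replicates.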
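For solubility change mitosis vs G1/S (difference of NP-40 vs SDS log2 ratios) in this document: synchronized HeLa Kyoto cells (double thymidine block for G1/S, nocodazole release for mitosis), protein amounts in NP-40 versus SDS lysates quantified by mass spectrometry, three biological replicates.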
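For solubility in G1/S (NP-40 vs SDS abundance) in this document: HeLa Kyoto cells arrested at G1/S by double thymidine block, proteins quantified by TMT10plex mass spectrometry in mild NP-40 versus SDS extracts, three biological replicates.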
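For thermal stability score vs G1/S (z-score of summed log2 fold changes over temperatures) in this document: synchronized HeLa Kyoto cells, proteins quantified by TMT10plex mass spectrometry, three biological replicates, mitosis taken 0.5 h after nocodazole release, G1/S directly after double thymidine block.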

For “MSEGVDLIDIYADEEFNQDPEFNNTDQIDLYDDVLTATSQPSDDRSSSTEPPPPVRQEPSPKPNNKTPAILYTYSGLRNRRAAVYVGSFSWWTTDQQLIQVIRSIGVYDVVELKFAENRANGQSKGYAEVVVASENSVHKLLELLPGKVLNGEKVDVRPATRQNLSQFEAQARKRECVRVPRGGIPPRAHSRDSSDSADGRATPSENLVPSSARVDKPPSVLPYFNRPPSALPLMGLPPPPIPPPPPLSSSFGVPPPPPGIHYQHLMPPPPRLPPHLAVPPPGAIPPALHLNPAFFPPPNATVGPPPDTYMKASAPYNHHGSRDSGPPPSTVSEAEFEDIMKRNRAISSSAISKAVSGASAGDYSDAIETLLTAIAVIKQSRVANDERCRVLISSLKDCLHGIEAKSYSVGASGSSSRKRHRSRERSPSRSRESSRRHRDLLHNEDRHDDYFQERNREHERHRDRERDRHH [CPSF7]”, the “solubility in G1/S (log2)” value in data set [1] was -0.309. Further, the thermal stability score in data set [2] (setting [5]) is -1.14; in data set [2] (cell cycle stage: mitosis) it was -2.91. In addition, the melting temperature in data set [3] (cell cycle stage: G1/S) is 51.8 °C; in data set [3] (cell cycle stage: mitosis), 52.1 °C. Moreover, the “solubility change mitosis (log2)” value in data set [4] is 0.173.
Take “MSEHVEPAAPGPGPNGGGGGPAPARGPRTPNLNPNPLINVRDRLFHALFFKMAVTYSRLFPPAFRRLFEFFVLLKALFVLFVLAYIHIVFSRSPINCLEHVRDKWPREGILRVEVRHNSSRAPVFLQFCDSGGRGSFPGLAVEPGSNLDMEDEEEEELTMEMFGNSSIKFELDIEPKVFKPPSSTEALNDSQEFPFPETPTKVWPQDEYIVEYSLEYGFLRLSQATRQRLSIPVMVVTLDPTRDQCFGDRFSRLLLDEFLGYDDILMSSVKGLAENEENKGFLRNVVSGEHYRFVSMWMARTSYLAAFAIMVIFTLSVSMLLRYSHHQIFVFIVDLLQMLEMNMAIAFPAAPLLTVILALVGMEAIMSEFFNDTTTAFYIILIVWLADQYDAICCHTSTSKRHWLRFFYLYHFAFYAYHYRFNGQYSSLALVTSWLFIQHSMIYFFHHYELPAILQQVRIQEMLLQAPPLGPGTPTALPDDMNNNSGAPATAPDSAGQPPALGPVSPGASGSPGPVAAAPSSLVAAAASVAAAAGGDLGWMAETAAIITDASFLSGLSASLLERRPASPLGPAGGLPHAPQDSVPPSDSAASDTTPLGAAVGGPSPASMAPTEAPSEVGS [TMEM259]”: the “solubility in G1/S (log2)” value in data set [1] is -0.252. In addition, the results for the thermal stability score in data set [2] (setting [5]) and in data set [2] (cell cycle stage: mitosis) were 0.29 and 0.308, respectively. For the same sequence, the melting temperature stood at 54.7 °C in data set [3] (cell cycle stage: G1/S) and 54.2 °C in data set [3] (cell cycle stage: mitosis). In addition, the “solubility change mitosis (log2)” value in data set [4] is -0.025.
On to “MSEKENNFPPLPKFIPVKPCFYQNFSDEIPVEHQVLVKRIYRLWMFYCATLGVNLIACLAWWIGGGSGTNFGLAFVWLLLFTPCGYVCWFRPVYKAFRADSSFNFMAFFFIFGAQFVLTVIQAIGFSGWGACGWLSAIGFFQYSPGAAVVMLLPAIMFSVSAAMMAIAIMKVHRIYRGAGGSFQKAQTEWNTGTWRNPPSREAQYNNFSGNSLPEYPTVPSYPGSGQWP [SCAMP4]”, for which, in data set [1], the “solubility in G1/S (log2)” value is -0.117. Moreover, the results for the thermal stability score in data set [2] (setting [5]) and in data set [2] (cell cycle stage: mitosis) were -1.67 and -2.1, respectively. Besides, the melting temperature was determined as 57 °C in data set [3] (cell cycle stage: G1/S) and 60.3 °C in data set [3] (cell cycle stage: mitosis). In addition, the “solubility change mitosis (log2)” value in data set [4] came to 0.144.
Turning to “MSELPGDVRAFLREHPSLRLQTDARKVRCILTGHELPCRLPELQVYTRGKKYQRLVRASPAFDYAEFEPHIVPSTKNPHQLFCKLTLRHINKCPEHVLRHTQGRRYQRALCKYEECQKQGVEYVPACLVHRRRRREDQMDGDGPRPREAFWEPTSSDEGGAASDDSMTDLYPPELFTRKDLGSTEDGDGTDDFLTDKEDEKAKPPREKATDEGRRETTVYRGLVQKRGKKQLGSLKKKFKSHHRKPKSFSSCKQPG [SURF2]”, the “solubility in G1/S (log2)” value in data set [1] is 0.0911. Further, the thermal stability score in data set [2] (setting [5]) worked out at 0.779; in data set [2] (cell cycle stage: mitosis) it was 0.703. For the same sequence, the figures for the melting temperature in data set [3] (cell cycle stage: G1/S) and in data set [3] (cell cycle stage: mitosis) were 50.7 °C and 50.3 °C, respectively. Further, the “solubility change mitosis (log2)” value in data set [4] was 0.0916.
For the sequence “MSENLDNEGPKPMESCGQESSSALSCPTVSVPPAAPAALEEVEKEGAGAATGPGPQPGLYSYIRDDLFTSEIFKLELQNVPRHASFSDVRRFLGRFGLQPHKTKLFGQPPCAFVTFRSAAERDKALRVLHGALWKGRPLSVRLARPKADPMARRRRQEGESEPPVTRVADVVTPLWTVPYAEQLERKQLECEQVLQKLAKEIGSTNRALLPWLLEQRHKHNKACCPLEGVRPSPQQTEYRNKCEFLVGVGVDGEDNTVGCRLGKYKGGTCAVAAPFDTVHIPEATKQVVKAFQEFIRSTPYSAYDPETYTGHWKQLTVRTSRRHQAMAIAYFHPQKLSPEELAELKTSLAQHFTAGPGRASGVTCLYFVEEGQRKTPSQEGLPLEHVAGDRCIHEDLLGLTFRISPHAFFQVNTPAAEVLYTVIQDWAQLDAGSMVLDVCCGTGTIGLALARKVKRVIGVELCPEAVEDARVNAQDNELSNVEFHCGRAEDLVPTLVSRLASQHLVAILDPPRAGLHSKVILAIRRAKNLRRLLYVSCNPRAAMGNFVDLCRAPSNRVKGIPFRPVKAVAVDLFPQTPHCEMLILFERVEHPNGTGVLGPHSPPAQPTPGPPDNTLQETGTFPSS [TRMT2A]”, the “solubility in G1/S (log2)” value in data set [1] is -0.136. Besides, the thermal stability score in data set [2] (setting [5]) turned out to be 2.34; in data set [2] (cell cycle stage: mitosis), 3.51. Moreover, the melting temperature in data set [3] (cell cycle stage: G1/S) was determined as 48.9 °C; in data set [3] (cell cycle stage: mitosis) it was 49.8 °C. The “solubility change mitosis (log2)” value in data set [4] was 0.169.
